Target: T1, ScErg28-Cub (S. cerevisiae, UniProt P40030 1-148)
T1 construct: Erg28 of S. cerevisiae, scaffold of the ergosome; Cub vector pCYC-BAIT-Cub-PLV; source: split-ubiquitin two-hybrid fusion, S. cerevisiae L40
T1 sequence: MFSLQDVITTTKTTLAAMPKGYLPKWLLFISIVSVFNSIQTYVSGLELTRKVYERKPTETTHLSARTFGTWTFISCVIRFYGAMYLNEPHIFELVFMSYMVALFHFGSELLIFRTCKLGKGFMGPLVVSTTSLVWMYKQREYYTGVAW
Test: two-hybrid; split-ubiquitin two-hybrid in S. cerevisiae L40; Cub-PLV and NubG fusions; growth on Trp- Leu- His- plates after 48 hr and >3-fold β-galactosidase activity over the negative control
Conditions: partners not purified

B1: ScErg27-NubG (natural protein)
chain: MNRKVAIVTGTNSNLGLNIVFRLIETEDTNVRLTIVVTSRTLPRVQEVINQIKDFYNKSGRVEDLEIDFDYLLVDFTNMVSVLNAYYDINKKYRAINYLFVNAAQGIFDGIDWIGAVKEVFTNPLEAVTNPTYKIQLVGVKSKDDMGLIFQANVFGPYYFISKILPQLTRGKAYIVWISSIMSDPKYLSLNDIELLKTNASYEGSKRLVDLLHLATYKDLKKLGINQYVVQPGIFTSHSFSEYLNFFTYFGMLCLFYLARLLGSPWHNIDGYKAANAPVYVTRLANPNFEKQDVKYGSATSRDGMPYIKTQEIDPTGMSDVFAYIQKKKLEWDEKLKDQIVETRTPI
notes: Erg27 of S. cerevisiae; Nub vector pADH-PREY-2HA-NubG; source: split-ubiquitin two-hybrid fusion, S. cerevisiae L40
fold increase in β-galactosidase activity over the negative interaction control: 15 fold

From article PMC7367482, “An Erg11 lanosterol 14-α-demethylase-Arv1 complex is required for Candida albicans virulence” (PLoS ONE, 2020)
